Test results from the Immune Epitope Database (IEDB).
pKd: −log10 of the molar value. One block for each sequence: values may come before it.

How the values were obtained:
[1] = target: HLA-B*58:01; assay: IEDB peptide-MHC binding, purified MHC/direct/fluorescence; filed as Kd, often an IC50 or EC50 that approximates it; ≥ and ≤ were set here for values at or beyond the usual limits of such assays
[2] = target: HLA-B*57:01; assay: as above
[3] = target: HLA-B*15:17; assay: as above
[4] = target: HLA-A*30:01; assay: IEDB peptide-MHC binding, purified MHC/competitive/radioactivity; filed as Kd, often an IC50 or EC50 that approximates it; ≥ and ≤ were set here for values at or beyond the usual limits of such assays; settings: source organism: Vaccinia virus WR
[5] = target: HLA-B*15:03; assay: as above
[6] = target: HLA-B*15:01; assay: as above
[7] = target: HLA-A*32:01; assay: as above
[8] = target: HLA-B*08:01; assay: as above; settings: source organism: Vaccinia virus WR
[9] = target: HLA-A*29:02; assay: as above; settings: source organism: Mammarenavirus juninense
[10] = target: HLA-A*23:01; assay: as above; settings: source organism: Mammarenavirus juninense
[11] = target: HLA-A*24:02; assay: as above; settings: source organism: Mammarenavirus juninense
[12] = target: HLA-A*24:03; assay: IEDB peptide-MHC binding, purified MHC/direct/fluorescence; filed as Kd, often an IC50 or EC50 that approximates it; ≥ and ≤ were set here for values at or beyond the usual limits of such assays
[13] = target: HLA-B*35:01; assay: IEDB peptide-MHC binding, purified MHC/competitive/radioactivity; filed as Kd, often an IC50 or EC50 that approximates it; ≥ and ≤ were set here for values at or beyond the usual limits of such assays
[14] = target: HLA-B*51:01; assay: as above
[15] = target: HLA-B*07:02; assay: as above
[16] = target: HLA-B*54:01; assay: as above
[17] = target: HLA-B*53:01; assay: as above
[18] = target: HLA-A*69:01; assay: IEDB peptide-MHC binding, purified MHC/direct/fluorescence; filed as Kd, often an IC50 or EC50 that approximates it; ≥ and ≤ were set here for values at or beyond the usual limits of such assays; settings: source organism: Haemophilus influenzae
[19] = target: HLA-B*07:02; assay: as above; settings: source organism: Haemophilus influenzae
[20] = target: HLA-A*26:01; assay: as above; settings: source organism: Haemophilus influenzae
[21] = target: HLA-B*40:01; assay: as above; settings: source organism: Haemophilus influenzae
[22] = target: HLA-B*15:01; assay: as above; settings: source organism: Haemophilus influenzae
[23] = target: HLA-A*01:01; assay: as above; settings: source organism: Haemophilus influenzae
[24] = target: HLA-A*11:01; assay: as above; settings: source organism: Haemophilus influenzae
[25] = target: HLA-A*02:01; assay: as above; settings: source organism: Haemophilus influenzae
[26] = target: HLA-B*27:05; assay: as above; settings: source organism: Haemophilus influenzae
[27] = target: HLA-B*08:01; assay: as above; settings: source organism: Haemophilus influenzae
[28] = target: HLA-A*03:01; assay: as above; settings: source organism: Haemophilus influenzae
[29] = source organism: Mammarenavirus lassaense
[30] = source organism: Vaccinia virus WR
[31] = source organism: Vaccinia virus Copenhagen
[32] = source organism: Brucella melitensis
[33] = source organism: Marburg virus - Musoke, Kenya, 1980
[34] = source organism: Haemophilus influenzae

Sequence: KSSLNISGY
pKd [1, 29]: 7.42
pKd [2, 29]: 6.24
pKd [3, 29]: 8.80

Sequence: KTKETNRIY
pKd [4]: 7.97
pKd [5, 30]: 6.76

Sequence: KWKYENPCK
pKd [6, 30]: ≤ 4.11
pKd [4]: 7.82
pKd [5, 30]: 6.53
pKd [7, 30]: ≤ 4.23
pKd [8]: ≤ 4.29

Sequence: LPVYFGSVF
pKd [5, 30]: 6.91

Sequence: LQNSVVLQF
pKd [6, 31]: 8.82
pKd [5, 31]: 8.21
pKd [7, 31]: 8.13

Sequence: LSVPAAIMM
pKd [5, 30]: 7.16

Sequence: LYTVKYPNL
pKd [9]: ≤ 4.63
pKd [10]: 6.64
pKd [11]: 5.61
pKd ([12]; source organism: Mammarenavirus machupoense): 7.52

Sequence: MTVVSAVHF
pKd [5, 30]: 6.56
pKd [7, 30]: 5.71

Sequence: NLYSFTIVF
pKd [5, 31]: 7.51

Sequence: RAYSVPETF
pKd [1, 32]: 7.84
pKd [2, 32]: 7.38
pKd [3, 32]: ≥ 9.00

Sequence: SATYATVPF
pKd [5, 31]: 7.92

Sequence: SSNAKNSEW
pKd [1, 33]: 7.16
pKd [2, 33]: 6.87
pKd [3, 33]: 8.57

Sequence: TPVEIVVDM
pKd [13, 29]: 8.34
pKd [14, 29]: 5.01
pKd [15, 29]: 4.78
pKd [16, 29]: ≤ 4.11
pKd [17, 29]: 6.80

Sequence: VLFLQQSIF
pKd [5, 30]: 9.21

Sequence: VPDIKLDAVL
pKd [13, 30]: 6.85
pKd [14, 30]: 6.47
pKd [15, 30]: 8.31
pKd [16, 30]: 5.79
pKd [17, 30]: 6.87

pKd [18]: ≤ 4.70
pKd [1, 34]: ≤ 4.70
pKd [19]: ≤ 4.70
pKd [20]: ≤ 4.70
pKd [21]: ≤ 4.70
pKd [22]: ≤ 4.70
pKd [23]: ≤ 4.70
pKd [12, 34]: 7.70
pKd [24]: ≤ 4.70
pKd [25]: ≤ 4.70
pKd [26]: ≤ 4.70
pKd [27]: ≤ 4.70
pKd [28]: ≤ 4.70
Sequence: VYFSPWFFL
